# Measurements from the supplement of paper PMC9170038.
# How the values were obtained:
# MS2 coat protein [1] = experiment: apparent KD of MS2 coat protein, switch ON state; designed switch direction (-1 OFF switch, 1 ON switch): -1; higher = weaker reporter binding; details: FMN input: 0 or 200 uM; Eterna round: R93 (includes R88 designs)
# How it was run: (§1)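 Designed RNA switches were transcribed on-chip from Illumina sequencing clusters. They were then titrated with SNAP-549-labelled MS2 coat protein (twofold steps, 0.7 or 1.5 nM to 3 µM; 0.8–1.5 h to 10–20 min per step) in 100 mM Tris-HCl pH 7.5, 80 mM KCl, 4 mM MgCl2, without or with constant ligand. Apparent KD is the per-design median of normalised cluster binding-curve fits.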
# MS2 coat protein [2] = experiment: apparent KD of MS2 coat protein, switch OFF state (with FMN for OFF switches, without FMN for ON switches); designed switch direction (-1 OFF switch, 1 ON switch): -1; higher = weaker reporter binding; details: FMN input: 0 or 200 uM; Eterna round: R93 (includes R88 designs)
# How it was run: as §1
Sequence,apparent KD of MS2 coat protein (MS2 coat protein [1]),apparent KD of MS2 coat protein (MS2 coat protein [2])
AAGAAGGUAGGAUAUACAUGAGGAUCACCCAUGUAAAAGAAAGAAAGGGAAAAGAAAAGUAGAAGGACCAAGAA [Usermaatre Amenemope],23.5 nM,27.4 nM
CCCAUGUCAGGAUAUCAGUAGUAAAAAAAAAAAAUUACUACUGAGAAGGGACAUGAGGAUCACCCAUGUUCAAA [EX4 317: Super Stable 17],33.4 nM,28.2 nM
AAGAAGUCAGGAUAUACAUGAGGAUCACCCAUGUAAAAGAAAGAAAAGGGAAAGAAAAGUAGAAGGGACAAGAA [Menkheperre Thutmose III],22.5 nM,208 nM
CUCUUGUAAGGAUAUCACCACACAAAAAAAAAAAAGUGUGGUGAGAAGGUACAUGAGGAUCACCCAUGUACUAA [Banishment 12 - Jieux - Exclusion 4],23.6 nM,25.2 nM
AAUAAACAUGAGGAUCACCCAUGUGAGGAUAUGGUAUAAUAAGGACAGUAAUGAUAAACCAGAAGGCACAAAUA [JR_Exc001_Sub1102],30.5 nM,34.7 nM
AAAGAUACAGGAUAUACAUGAGGAUCACCCAUGUGAGACCAAAAAUGGGAAAAAGAAAGUAGAAGGGUAUAAAA [Ex 3 May 36],39.9 nM,91.7 nM
AAAAAACAUGAGGAUCACCCAUGUAAGGAUAUGCAAAAAAUGGGUAAAAGGGUAAAAAGCAGAAGGUACAAAAA [scarecrow1],156 nM,92.1 nM
AAAAAACAUGAGGAUCACCCAUGUCAGGAUAUCCGGUUCUUAAAAAAAAAAAGGCGUUGGAGAAGGGACAUUCC [Chica Displaced 11 - Jieux - Exclusion 1],28.9 nM,38 nM
GAGAAGUGAGGAUAUCGAAGACAGACGAAAAGUCUGUCAAACGAGAAGGCACAUGAGGAUCACCCAUGUGGGAG [Mat - Exaclusion 4 - Eli mod - D75],81.2 nM,302 nM
AAAAAGGGAGGAUAUACAUGAGGAUCACCCAUGUAAAAAAAAAAAAAAGGGAGGGAAGGUAGAAGGCCCAAAAA [Excls3-II],39.6 nM,52.5 nM
GUGUACAGAGGAUAUACAUGGGCAUGAAAACAUGCAUCCUCACAUGAGGAUCACCCAUGUAGAAGGCUGUACAC [Ex2: 706],24.5 nM,25.7 nM
AAAAAGGAAGGAUAUACGAACAUGUCAAAAGACGUGAAGGGACAUGAGGAUCACCCAUGUAGAAGGUCCAAAAA [JL Half Open 23],83.4 nM,99.6 nM
AAAAAGGCAGGAUAUACGAGUCAAAGAAAAGACAAAAGGAGACAUGAGGAUCACCCAUGUAGAAGGGCCAAAAA [Fiskers exclusion D2 62% 5],36.8 nM,48.8 nM
AGCUAGUCAGGAUAUACGAACAUGUCGAAAGACGUGAAGGGACAUGAGGAUCACCCAUGUAGAAGGGACUAGCA [Mat - Exclusion 2 - JL mod - D1],34.2 nM,120 nM
AAAAAGUGAGGAUAUACGAAAAAAAAAAAAAAAAAAGGUGAACAUGAGGAUCACCCAUGUAGAAGGCACAAAAA [Black Design],102 nM,312 nM
AGGAAACAUGAGGAUCACCCAUGUGAGGAUAUUGAAAAGAAAAGAAAAGAAAGAAGAACAAGAAGGCACAAGAA [Tiu],29.6 nM,31.5 nM
AAGAACGUAGGAUAUACAAAAUAAAAGAAAAGAAAGAAAGAACAUGAGGAUCACCCAUGUAGAAGGACGAAGAA [Sekhemrekhutawy Khabaw],21.6 nM,21.8 nM
UCCGGACAUGAGGAUCACCCAUGUGAGGAUAUAUAAAGUGGGACUAGAAACAGUCCCAAUAGAAGGCACAUGAC [Esarbiorar],22 nM,17.6 nM
AACAGUACAGGAUAUACAUGAGGAUCACCCAUGUAAAAGGGAAGUGGCGUACCACAAAGUAGAAGGGUACUGGA [Moding Maslow revisited (73) 6],37.6 nM,121 nM
AAAAAGUUAGGAUAUACAUGAGGAUCACCCAUGUACAUAUAUGGAGAAAAAAACAGUAGUAGAAGGGACAAAAA [EX2 Malc#12],20.6 nM,19.8 nM
AGAAAGUCAGGAUAUGCGAAGGCGUCUGAUAGACGAGGCUAGCAGAAGGGACAUGAGGAUCACCCAUGUGAAGA [Mat - Exclusion 4 - Eli mod - D85],55 nM,86.4 nM
CACGUACAUGAGGAUCACCCAUGUUAGGAUAUGCCGGGUAAGAGAAAACUAAAAACCCGUAGAAGGGACGAAAC [Bilbo Confounded 13 - Jieux - Exclusion 1],23.3 nM,28.6 nM
AAAAAGUGAGGAUAUACAUGAGGAUCACCCAUGUGAUAAAAAAAAAGGGUGGAAGAAAGUAGAAGGCACCAAAA [Ex 3 May 49],108 nM,77.5 nM
AAAAAGUGAGGAUAUACGCGAACAAAAAUAAAAAAGAAAGCGUAGAAGGCACAUGAGGAUCACCCAUGUCCAAA [Alfred 64% 5],27.7 nM,41.1 nM
GGAAAACAUGAGGAUCACCCAUGUAAGGAUAUGCAAAAGGAUAUAGAAGGAAAAAAAAGCAGAAGGUACAAAGG [salish99-ex1-21],32.5 nM,151 nM
AAUAACACAGGAUAUACUAAAGAAAUGAAAAGAAAUAAAGAACAUGAGGAUCACCCAUGUAGAAGGGUGAAUAA [Shenshek],204 nM,186 nM
AAGAAACAUGAGGAUCACCCAUGUCAGGAUAUACAAAAGAAAAGAAAAGAAAGAAGAAGUAGAAGGGACAAAGG [Neitiqerty Siptah],38.3 nM,69.3 nM
AAAAAGUCAGGAUAUACAUGAGGAUCACCCAUGUGAAAGAACGAUUAACGAAAAGCAAGUAGAAGGGACAAAAA [Ruby 79],22.1 nM,23.7 nM
CUCAAGUAAGGAUAUUCAAGAAAAGAAGAGAAAGAAAAGAAGAAGAAGGUACAUGAGGAUCACCCAUGUAAGAA [EteRNA is fun!],44.6 nM,35.3 nM
AAAUUGUCAGGAUAUCUUAGAACUCUAAAAUAGAGGAGCUAAGAGAAGGGACAUGAGGAUCACCCAUGUAAAAC [May 89],86.5 nM,71 nM
